Assay results published in patent publication US20160311918A1, “Anti-Ron Monoclonal Antibodies as a Cytotoxic Drug Delivery System for Targeted Cancer Therapy” (TEXAS TECH UNIVERSITY SYSTEM, priority 2013, published 2016).

Target: cell surface RON (Homo sapiens, UniProt Q04912)
Assay: Kinetic reduction of cell surface RON (endocytosis) in CRC cells
Format: cell-based
Parameters: We selected CRC cell lines HT29, HCT116, and SW620 expressing variable levels of RON as the cellular model; host or cells: HCT116, HT29, SW620
Settings: for time required to induce 50% RON reduction (internalization efficacy): 37° C.
Method: FIGS. 2A to 2F show the binding and induction of RON endocytosis by Zt/g4-DM1 in CRC cells. FIG. 2A: Levels of RON expression by different CRC cell lines: Five CRC cells lines (1×10^6 cells/ml) in PBS were incubated at 4° C. with 5 μg/ml Zt/g4 for 60 min. […] matched mouse IgG was used as the control. Cell surface RON was quantitatively determined by the immunofluorescence assay using QIFKIT® reagents from DAKO (Carpentaria, Calif.) as detailed in Materials and Methods. FIG. 2B: Binding of Zt/g4-DM1 to human CRC cell lines: HCT116, HT29, and SW620 cells (1×10^5 cells) were incubated with 5 μg Zt/g4-DM1 or Zt/c1-DM1. Free Zt/g4 and Zt/c1 was used as the control. Fluorescence intensity from individual samples was determined by flow cytometric analysis. FIG. 2C: Kinetic reduction of cell surface RON: HCT116, HT29, and SW620 cells (1×10^6 cells per dish) were treated at 37° C. with 5 μg/ml of Zt/g4-DM1, collected at different time points, washed with acidic buffer to eliminate cell surface bound IgG, and then incubated with 1 μg/mL of anti-RON mAb 2F2 Immunofluorescence was analyzed by flow cytometer using FITC-coupled anti-mouse IgG Immunofluorescence from cells treated with Zt/g4-DM1 or Zt/c1-DM1 at 4° C. was set as 100%. Internalization efficiency was calculated as the time required to achieve 50% cell surface RON reduction. FIG. 2D: RON reduction analysis by Western blotting: Cellular proteins (50 μg per lane) from cells treated with 5 μg/ml of Zt/g4 or Zt/g4-DM1 for various times were separated in an 8% SDS-PAGE under reduced conditions and transferred to the membrane. RON was detected by rabbit anti-RON antibody followed enhanced chemiluminescent reagents. The same membrane was reprobed for actin as the loading control. FIG. 2E: Quantitative measurement of RON expression: The intensity of individual RON-β chains was determined by densitometric analysis. Internalization efficiency was calculated as the time required to achieve a 50% RON reduction. FIG. 2F: Immunofluorescent localization of cytoplasmic RON: HT29 cells (1×10^5 cells per chamber) were treated at 4° C. or 37° C. with 5 μg/ml of Zt/g4-DM1 or Zt/c1-DM1 for 6 h followed by FITC-coupled anti-mouse IgG. After cell fixation, immunofluorescence was detected using the BK70 Olympus microscope equipped with a fluorescence apparatus. LAMP1 was used as a marker for protein cytoplasmic localization. DAPI was used to stain nuclear DNA;
Zt/g4-DM1-induced RON endocytosis was studied, which is a process essential for delivering DM1 into CRC cells. Zt/g4-DM1 causes a progressive reduction of cell surface RON in a time-dependent manner in all three CRC cell lines tested (FIG. 2C). Less than 20% of RON remained on the cell surface after a 48 hour treatment. […] Thus, Zt/g4-DM1 is more efficient and potent in induction of RON endocytosis.

Chain of cell surface RON (Q04912 310-1400 limits assumed): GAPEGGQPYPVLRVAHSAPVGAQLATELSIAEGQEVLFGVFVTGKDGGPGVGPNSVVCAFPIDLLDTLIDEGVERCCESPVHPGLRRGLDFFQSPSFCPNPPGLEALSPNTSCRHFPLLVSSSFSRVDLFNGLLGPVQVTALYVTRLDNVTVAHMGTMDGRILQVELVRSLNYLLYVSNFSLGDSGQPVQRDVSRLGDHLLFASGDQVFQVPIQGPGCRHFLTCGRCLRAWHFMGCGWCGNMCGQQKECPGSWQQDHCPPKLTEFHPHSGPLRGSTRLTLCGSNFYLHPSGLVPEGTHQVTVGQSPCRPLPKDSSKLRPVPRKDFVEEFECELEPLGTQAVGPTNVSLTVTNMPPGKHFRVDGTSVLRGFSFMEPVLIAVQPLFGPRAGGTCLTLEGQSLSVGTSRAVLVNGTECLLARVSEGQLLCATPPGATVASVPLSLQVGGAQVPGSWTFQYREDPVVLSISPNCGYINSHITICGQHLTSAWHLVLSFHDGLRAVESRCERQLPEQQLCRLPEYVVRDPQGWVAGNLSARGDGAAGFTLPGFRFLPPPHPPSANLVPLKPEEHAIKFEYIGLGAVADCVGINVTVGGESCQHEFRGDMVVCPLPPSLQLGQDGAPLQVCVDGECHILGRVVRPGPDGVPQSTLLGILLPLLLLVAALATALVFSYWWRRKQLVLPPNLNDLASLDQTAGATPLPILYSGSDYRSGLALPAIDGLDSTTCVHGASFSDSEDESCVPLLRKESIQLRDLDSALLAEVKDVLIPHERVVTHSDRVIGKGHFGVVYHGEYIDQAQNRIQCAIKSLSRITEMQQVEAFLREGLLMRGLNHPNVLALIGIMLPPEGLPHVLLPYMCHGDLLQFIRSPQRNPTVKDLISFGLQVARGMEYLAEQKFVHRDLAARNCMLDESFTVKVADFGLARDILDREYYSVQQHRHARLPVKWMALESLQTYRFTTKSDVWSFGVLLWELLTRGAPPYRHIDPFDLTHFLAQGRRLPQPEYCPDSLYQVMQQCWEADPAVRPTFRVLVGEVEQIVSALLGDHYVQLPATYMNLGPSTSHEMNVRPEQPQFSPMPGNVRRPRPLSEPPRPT
Chain of cell surface RON (Q04912 25-304 limits assumed): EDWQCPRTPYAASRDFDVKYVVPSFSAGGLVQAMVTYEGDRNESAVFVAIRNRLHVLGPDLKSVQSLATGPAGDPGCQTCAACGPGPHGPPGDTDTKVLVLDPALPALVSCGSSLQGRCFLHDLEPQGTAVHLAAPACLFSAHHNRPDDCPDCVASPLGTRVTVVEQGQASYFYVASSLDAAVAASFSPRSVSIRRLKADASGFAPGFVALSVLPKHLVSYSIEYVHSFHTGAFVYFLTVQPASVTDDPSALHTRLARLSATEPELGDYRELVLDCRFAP

B1: Zt/g4-DM1: anti-RON mouse mAb Zt/g4 conjugated to maytansinoid DM1 via non-reducible thioether linkage (SMCC), DAR about 4:1 (conjugate)
VH: EVQLQQSGAELVKPGASVKLSCTTSGFNIIDTYIHWVNQKPDQGLEWIGRIDPADGNRKSDPKFQVKATITVDTSSNTAYLQLSSLTSGDTAVYYCARGYGNLNAMDSWGQGTSVTVSS
VL: DIQMNQSPSSLSASLGDTITITCHASQNINVWLNWYQQKPGNIPKLLIYKASNLHTGVPSRFSGSGSGTGFTLTISSLQPEDIATYYCQQGQSYPLTFGGGTKLEIK
- time required to induce 50% RON reduction (internalization efficacy) (HCT116, 5 μg/ml): 12.26 h
- time required to induce 50% RON reduction (internalization efficacy) (HT29, 5 μg/ml): 11.02 h
- time required to induce 50% RON reduction (internalization efficacy) (SW620, 5 μg/ml): 12.30 h
- RON remaining on the cell surface (after 48 hour treatment, 5 μg/ml, three CRC cell lines): Less than 20%
- cell surface RON internalized (within 48 h): > 80%
